Measurements published in patent publication US20170298096A1 (CANIMGUIDE THERAPEUTICS, published 2017).

T1: His-tagged P3028 peptide (PGE73) (human)
T1 construct: albumin-derived peptide, in solution at 0.5 ug/mL; not shown: His-tag
T1 peptide: VFDEFKPLVEEPQNLIK


Molecular target: T1, His-tagged P3028 peptide (PGE73)
Assay: PEPSCAN ELISA, peptide on card
Method: After washing, the peroxidase substrate 2,2′-azine-di-3-ethylbenzthiazoline sulfonate (ABTS) and 2 μL of 3% H2O2 were added. The binding capacity of the mAb was measured as a color development at 405 nm (optical density, OD405). The color development was quantified with a charge-coupled device (CCD)—camera and an image processing system.
The OD405-values obtained by a CCD-camera was considered as raw data values (“rampo values,” “rampo units,” or “rampo scores”). […] First the CCD-camera made a picture of the card before peroxidase coloring and then again a picture after the peroxidase coloring. […] These values were copied into an excel file and labeled as a raw data file. One follow-up manipulation was allowed. Sometimes a well can contain an air-bubble resulting in a false-positive value. If manual inspection of the cards detect an air-bubble the value are set to 0 for that well.

Row | Binder | RAMPO Score
1 | KKLDSFFVKLSLFTER [SEQ ID NO: 310 KKLDSFFVKLSLFTER] | 458
2 | KKLDTFFVKLSSFTER [SEQ ID NO: 357 KKLDTFFVKLSSFTER] | 478
3 | KKLDTFFVKPSLFTER [SEQ ID NO: 338 KKLDTFFVKPSLFTER] | 436
4 | KKLDTFFVRLSLFTER [SEQ ID NO: 331 KKLDTFFVRLSLFTER] | 374
5 | KKLDTFFVKLMLFTER [SEQ ID NO: 346 KKLDTFFVKLMLFTER] | 744
6 | KKLDTFFVKMSLFTER [SEQ ID NO: 336 KKLDTFFVKMSLFTER] | 460
7 | KKLDTFFLKLSLFTER [SEQ ID NO: 328 KKLDTFFLKLSLFTER] | 411
8 | KKLDTFFVKASLFTER [SEQ ID NO: 332 KKLDTFFVKASLFTER] | 426
9 | KKLDTPFVKLSLFTER [SEQ ID NO: 317 KKLDTPFVKLSLFTER] | 497
10 | KKLDTFFVKLTLFTER [SEQ ID NO: 349 KKLDTFFVKLTLFTER] | 520
11 | KKLDTFFVKLSIFTER [SEQ ID NO: 352 KKLDTFFVKLSIFTER] | 456
12 | KKLDTIFVKLSLFTER [SEQ ID NO: 314 KKLDTIFVKLSLFTER] | 466
13 | KKLDTFFVKLSQFTER [SEQ ID NO: 355 KKLDTFFVKLSQFTER] | 651
14 | KKLDTFFVKRSLFTER [SEQ ID NO: 340 KKLDTFFVKRSLFTER] | 439
15 | KKLDWFFVKLSLFTER [SEQ ID NO: 311 KKLDWFFVKLSLFTER] | 418
16 | KKLDTFFRKLSLFTER [SEQ ID NO: 330 KKLDTFFRKLSLFTER] | 365
17 | KKLDTFFPKLSLFTER (also called 32251) [SEQ ID NO: 329 KKLDTFFPKLSLFTER] | 456
18 | KKLDTFFVKYSLFTER [SEQ ID NO: 344 KKLDTFFVKYSLFTER] | 382
19 | KKLDTFFVKLSNFTER [SEQ ID NO: 354 KKLDTFFVKLSNFTER] | 462
20 | KKLDTFMVKLSLFTER [SEQ ID NO: 321 KKLDTFMVKLSLFTER] | 712
21 | KKLDTFFVKQSLFTER [SEQ ID NO: 339 KKLDTFFVKQSLFTER] | 470
22 | KKLDTFFVKLHLFTER [SEQ ID NO: 345 KKLDTFFVKLHLFTER] | 535
23 | KKLDTFFVKTSLFTER [SEQ ID NO: 342 KKLDTFFVKTSLFTER] | 399
24 | KKLDTAFVKLSLFTER [SEQ ID NO: 313 KKLDTAFVKLSLFTER] | 575
25 | KKLDTNFVKLSLFTER [SEQ ID NO: 316 KKLDTNFVKLSLFTER] | 446

Row | Binder | RAMPO Score
26 | KKLDTTFVKLSLFTER [SEQ ID NO: 318 KKLDTTFVKLSLFTER] | 481
27 | KKLDTFQVKLSLFTER [SEQ ID NO: 322 KKLDTFQVKLSLFTER] | 511
28 | KKLDTMFVKLSLFTER [SEQ ID NO: 315 KKLDTMFVKLSLFTER] | 467
29 | KKLDTFFVKLSRFTER [SEQ ID NO: 356 KKLDTFFVKLSRFTER] | 483
30 | KKLDTFFVKGSLFTER [SEQ ID NO: 334 KKLDTFFVKGSLFTER] | 495
31 | KKLDTFFVKLSTFTER [SEQ ID NO: 358 KKLDTFFVKLSTFTER] | 437
32 | KKLDTFLVKLSLFTER [SEQ ID NO: 320 KKLDTFLVKLSLFTER] | 517
33 | KKLDTFFVKLSHFTER [SEQ ID NO: 351 KKLDTFFVKLSHFTER] | 460
34 | KKLDTFFVKFSLFTER [SEQ ID NO: 333 KKLDTFFVKFSLFTER] | 403
35 | KKLDTFFVKLNLFTER [SEQ ID NO: 347 KKLDTFFVKLNLFTER] | 451
36 | KKLDTFFVKNSLFTER [SEQ ID NO: 337 KKLDTFFVKNSLFTER] | 365
37 | KKLDTFFVKISLFTER [SEQ ID NO: 335 KKLDTFFVKISLFTER] | 415
38 | KKLDTFFVKLSMFTER [SEQ ID NO: 353 KKLDTFFVKLSMFTER] | 499
39 | KKLDTFFVKVSLFTER [SEQ ID NO: 343 KKLDTFFVKVSLFTER] | 658
40 | KKLDTFFGKLSLFTER [SEQ ID NO: 327 KKLDTFFGKLSLFTER] | 379
41 | KKLDTFSVKLSLFTER [SEQ ID NO: 323 KKLDTFSVKLSLFTER] | 700
42 | KKLDTFFVKSSLFTER [SEQ ID NO: 341 KKLDTFFVKSSLFTER] | 351
43 | KKLDTFFFKLSLFTER [SEQ ID NO: 326 KKLDTFFFKLSLFTER] | 358
44 | KKLDYFFVKLSLFTER [SEQ ID NO: 312 KKLDYFFVKLSLFTER] | 425
45 | KKLDTFFVKLQLFTER (also called 30678) [SEQ ID NO: 348 KKLDTFFVKLQLFTER] | 768
46 | KKLDTFTVKLSLFTER [SEQ ID NO: 324 KKLDTFTVKLSLFTER] | 517
47 | KKLDTFFVKLSAFTER [SEQ ID NO: 350 KKLDTFFVKLSAFTER] | 462
48 | KKLDTFVVKLSLFTER [SEQ ID NO: 325 KKLDTFVVKLSLFTER] | 527
49 | KKLDTVFVKLSLFTER [SEQ ID NO: 319 KKLDTVFVKLSLFTER] | 547

Now from value to binder:

Row | RAMPO Score | Binder
50 | 1190 | KKLDTFFVKLSLMTER (also called 30677) [SEQ ID NO: 367 KKLDTFFVKLSLMTER]
51 | 448 | KKLDTFFVKLSLLTER [SEQ ID NO: 366 KKLDTFFVKLSLLTER]
52 | 360 | KKLDTFFVKLSLFLER [SEQ ID NO: 380 KKLDTFFVKLSLFLER]
53 | 1140 | KKLDTFFVKLSLQTER [SEQ ID NO: 370 KKLDTFFVKLSLQTER]
54 | 531 | KKLDTFFVKLSLGTER [SEQ ID NO: 363 KKLDTFFVKLSLGTER]
55 | 525 | KKLDTFFVKLSLATER [SEQ ID NO: 361 KKLDTFFVKLSLATER]
56 | 494 | KKLDTFFVKLSLTTER [SEQ ID NO: 373 KKLDTFFVKLSLTTER]
57 | 501 | KKLDTFFVKLSLFMER [SEQ ID NO: 381 KKLDTFFVKLSLFMER]
58 | 400 | KKLDTFFVKLSLCTER [SEQ ID NO: 362 KKLDTFFVKLSLCTER]
59 | 696 | KKLDTFFVKLSLPTER [SEQ ID NO: 369 KKLDTFFVKLSLPTER]
60 | 375 | KKLDTFFVKLSLFIER [SEQ ID NO: 379 KKLDTFFVKLSLFIER]
61 | 1050 | KKLDTFFVKLSLHTER [SEQ ID NO: 364 KKLDTFFVKLSLHTER]
62 | 502 | KKLDTFFVKLSLRTER [SEQ ID NO: 371 KKLDTFFVKLSLRTER]
63 | 348 | KKLDTFFVKLSLFFER [SEQ ID NO: 376 KKLDTFFVKLSLFFER]
64 | 463 | KKLDTFFVKLSLFHER [SEQ ID NO: 378 KKLDTFFVKLSLFHER]
65 | 430 | KKLDTFFVKLSLWTER [SEQ ID NO: 375 KKLDTFFVKLSLWTER]
66 | 446 | KKLDTFFVKLSLVTER [SEQ ID NO: 374 KKLDTFFVKLSLVTER]
67 | 468 | KKLDTFFVKLSLITER [SEQ ID NO: 365 KKLDTFFVKLSLITER]
68 | 343 | KKLDTFFVKLSLFGER [SEQ ID NO: 377 KKLDTFFVKLSLFGER]
69 | 635 | KKLDTFFVKLSLSTER [SEQ ID NO: 372 KKLDTFFVKLSLSTER]
70 | 545 | KKLDTFFVKLSVFTER [SEQ ID NO: 359 KKLDTFFVKLSVFTER]
71 | 409 | KKLDTFFVKLSWFTER [SEQ ID NO: 360 KKLDTFFVKLSWFTER]
72 | 862 | KKLDTFFVKLSLNTER [SEQ ID NO: 368 KKLDTFFVKLSLNTER]
